The values that follow come from patent US20210292409A1 (Chugai, published 2021).

Experiment [1] deals with T1, human IL6R (Accession no. NP_000556) (human, UniProt P08887 20-468).
T1 construct: whole, on cells; Expressed on Flp-In-CHO cells (IL6R+CHO)
T1 sequence (looked up): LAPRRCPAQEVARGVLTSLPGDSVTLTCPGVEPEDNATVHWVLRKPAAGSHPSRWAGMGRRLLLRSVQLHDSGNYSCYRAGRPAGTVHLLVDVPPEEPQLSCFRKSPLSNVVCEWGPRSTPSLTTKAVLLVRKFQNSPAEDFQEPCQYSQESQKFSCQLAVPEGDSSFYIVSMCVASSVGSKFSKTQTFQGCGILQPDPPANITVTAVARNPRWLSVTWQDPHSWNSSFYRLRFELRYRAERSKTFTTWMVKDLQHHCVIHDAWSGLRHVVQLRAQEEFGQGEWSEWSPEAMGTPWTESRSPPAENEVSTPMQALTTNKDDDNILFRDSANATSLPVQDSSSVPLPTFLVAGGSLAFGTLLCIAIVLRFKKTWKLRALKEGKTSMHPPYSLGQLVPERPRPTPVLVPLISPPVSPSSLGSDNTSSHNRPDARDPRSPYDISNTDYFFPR
As to the kind of experiment: flow cytometry on HeLa/BirA cells transfected with human IL6R; antibody at 1 micro M in the sorting step. As to the method: To select cells stably expressing IL6R, antibiotic resistant cells were incubated with 1 micro M of anti-IL6R antibody PF1H-G4T1K439E.Avi/PF1L-KT0 (heavy chain, PF1H-G4T1K439E.Avi (SEQ ID NO: 66); light chain, PF1L-KT0 (SEQ ID NO: 67) in MACS buffer (Auto MACS Rinsing Solution (Miltenyi Biotec, Cat #130-091-222) and MACS BSA Stock Solution (Miltenyi Biotec, Cat #1130-091-376)) for 30 min on ice. After wash in MACS buffer, cells were further incubated with R-phycoerythrin (PE) labelled anti-kappa antibody (Southern Biotech, Cat #2060-09) for 30 min on ice in MACS buffer. After wash in MACS buffer, cells expressing IL6R were sorted by FACSAria IIu sorter (Becton Dickinson). Selected clones were then expanded. Flow cytometry using anti-IL6R antibody PF1H-G4T1K439E.Avi/PF1L-KT0 and R-phycoerythrin (PE) labelled anti-kappa antibody (Southern Biotech, Cat #2060-09) with FACS Verse (Becton Dickinson) confirmed high expression of IL6R. BirA expression was also confirmed by capillary immunoassay using Simple Western Wes (Protein Simple).
A general note: Flow cytometry measures light scatter and fluorescence of single cells or particles in a stream.

For experiment [2], the target named is T2, human ASGPR (ASGPR-H1 and ASGPR-H2 subunits) (human, UniProt P07306 2-291; P07307 2-311).
T2 construct: Plasmids for H1 and H2 transfected in a ratio of 2:1 into HeLa cells; also called Asialoglycoprotein receptor
T2 sequence 1: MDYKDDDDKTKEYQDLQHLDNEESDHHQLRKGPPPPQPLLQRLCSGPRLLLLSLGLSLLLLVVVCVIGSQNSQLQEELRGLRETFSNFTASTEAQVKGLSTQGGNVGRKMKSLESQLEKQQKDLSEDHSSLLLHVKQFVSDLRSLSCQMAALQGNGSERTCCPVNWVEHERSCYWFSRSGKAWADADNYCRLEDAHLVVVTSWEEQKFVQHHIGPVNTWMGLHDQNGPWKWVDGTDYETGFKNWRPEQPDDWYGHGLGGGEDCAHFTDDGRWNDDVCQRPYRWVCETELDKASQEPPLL
T2 sequence 2: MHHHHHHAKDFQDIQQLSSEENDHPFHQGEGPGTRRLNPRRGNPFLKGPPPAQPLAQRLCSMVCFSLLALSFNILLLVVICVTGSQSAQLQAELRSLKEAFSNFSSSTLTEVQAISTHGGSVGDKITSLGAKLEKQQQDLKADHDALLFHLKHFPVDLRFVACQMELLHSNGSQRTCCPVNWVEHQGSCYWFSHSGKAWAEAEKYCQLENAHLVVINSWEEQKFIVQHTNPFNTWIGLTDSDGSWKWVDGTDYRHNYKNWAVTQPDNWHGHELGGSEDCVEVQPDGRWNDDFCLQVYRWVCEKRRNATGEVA
As to the kind of experiment: flow cytometry on HeLa/ASGPR/BirA cells.

B1: anti-IL6R antibody PF1H-G4T1K439E.Avi/PF1L-KT0 (antibody, human IgG4 S228P, kappa, V domains shown)
VH: QVQLQESGPGLVKPSETLSLTCAVSGYSISDDHAWSWVRQPPGEGLEWIGYISYSGITNYNPSLKGRVTISRDTSKNQFSLKLSSVTAADTAAYYCARVLARITAMDYWGEGTLVTVSS
VL: DIQMTQSPSSLSASVGDSVTITCQASQDISSYLNWYQQKPGKAPELLIYYGSELHSGVPSRFSGSGSGTDFTFTISSLEAEDAATYYCGQGNRLPYTFGQGTKVEIER
For the molecule B1, the binding result in experiment [1] is given as “binds”.

B2: anti-ASGPR antibody AGA0008Ha-G4T1K439E.Avi/AGA0008La-kOMC (antibody, human IgG4 S228P, kappa, V domains shown)
VH: QSVEESGGRLVTPGTPLTLTCTVSGFSLSSYAMGWVRQAPGKGLEYIGFINTGGSPYYASWAKGRFTISRTSTTVDLKMTSPTTEDTATYFCARDYDTSSGYYGYFNLWGPGTLVTVSS
VL: AQVLTQTPASVSAAVGGTVTIKCQASENIDSYLAWYQQKPGQPPKLLIYRASTLASGVPSRFKGSGSGTPFTLTISDLECADAATYYCQRYVSLNSGDAFGGGTKVEIKR
B2: in experiment [2], the binding result is recorded as “binds”.
